Source: article PMC11413682

Biological target: CUL2^ZYG11B (residues 490–728) (human) (UniProt Q9C0D3)
Experiment: ITC; MicroCal iTC200; peptides (0.5–1 mmol/L) in the syringe, CUL2^ZYG11B(490–728) (0.03 mmol/L) in the cell; 18 injections of 2 μL; repeated 3 times

CUL2^ZYG11B (residues 490–728) (human), sequence (Q9C0D3 490-728): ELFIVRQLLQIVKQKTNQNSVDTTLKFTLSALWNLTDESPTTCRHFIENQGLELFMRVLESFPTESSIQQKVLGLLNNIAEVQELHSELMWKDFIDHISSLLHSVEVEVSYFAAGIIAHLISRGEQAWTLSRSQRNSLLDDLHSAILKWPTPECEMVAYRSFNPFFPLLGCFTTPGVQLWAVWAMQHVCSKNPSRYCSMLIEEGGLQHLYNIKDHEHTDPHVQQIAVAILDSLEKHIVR

Row | Substance | fold decrease of binding against ORF10 N5 [fold] | Kd [µM]
1 | SARS-CoV-2 ORF10 N5 peptide G1A | 4 | 
2 | SARS-CoV-2 ORF10 N5 peptide G1S | 4 | 
3 | SARS-CoV-2 ORF10 N5 peptide I3A |  | 5.61
4 | SARS-CoV-2 ORF10 N5 peptide I3F |  | 0.87
5 | SARS-CoV-2 ORF10 N5 peptide N4A |  | 0.59
6 | SARS-CoV-2 ORF10 N5 peptide Y2A |  | 25.2
7 | SARS-CoV-2 ORF10 N5 peptide Y2F |  | 4.73
